Experimental data taken from patent publication US20210246166A1 (Bayer, published 2021).
Numbered stars: 1 amine (or outer) side, 2 acyl side, 3 side chain; on linkers, the order of the positions; unused ones are H or OH. Bridge positions count the residues as written; N and C are the ends. Square brackets hold non-standard residues; d marks the D form. Ends that are not written are not given here. * marks the point of attachment. X13 = (2S)‑2‑amino‑3‑(1-methylcyclopropyl)propanoic acid, CC1(C[C@H](N[*:1])C(=O)[*:2])CC1; (3-Chloro-Ph)G = 3-chlorophenylglycine, O=C([C@@H](N[*:1])c1cccc(Cl)c1)[*:2]; Phe(2,5-diF) = O=C([C@H](Cc1cc(F)ccc1F)N[*:1])[*:2]; Pro(cis-4-CF3) = O=C(O)[C@@H]1C[C@H](C(F)(F)F)CN1; Pro(4-spirocPr) = O=C(O)[C@@H]1CC2(CC2)CN1; C18 diacid = O=C(O)CCCCCCCCCCCCCCCCC(=O)*; Oic = O=C(O)[C@@H]1C[C@@H]2CCCC[C@@H]2N1; tBuAla = CC(C)(C)C[C@H](N)C(=O)O; Aad = N[C@@H](CCCC(=O)O)C(=O)O; Pen = CC(C)(S)[C@H](N)C(=O)O; PEG3 = NCCOCCOCCOCCC(=O)O; Orn = NCCC[C@H](N)C(=O)O; Sar = CNCC(=O)O

T1: Recombinant human MASP1 enzyme (fragment corresponding to amino acids 297-699, C-terminal His Tag) (human, UniProt P48740 297-699)
T1 sequence: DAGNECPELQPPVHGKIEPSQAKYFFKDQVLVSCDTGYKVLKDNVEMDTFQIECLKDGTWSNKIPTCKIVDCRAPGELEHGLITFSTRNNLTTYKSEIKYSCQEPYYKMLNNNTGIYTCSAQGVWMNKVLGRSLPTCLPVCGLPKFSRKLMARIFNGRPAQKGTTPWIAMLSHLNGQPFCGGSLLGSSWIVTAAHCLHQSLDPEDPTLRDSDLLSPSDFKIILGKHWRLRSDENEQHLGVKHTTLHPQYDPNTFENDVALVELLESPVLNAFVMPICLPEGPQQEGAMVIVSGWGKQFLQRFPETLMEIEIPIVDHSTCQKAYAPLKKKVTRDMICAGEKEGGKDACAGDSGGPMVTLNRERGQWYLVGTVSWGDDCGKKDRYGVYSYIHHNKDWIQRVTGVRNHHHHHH

B1: (ODD)-AIC+SRSLP-(Oic)-I-(Pen)+IPD-(Orn)-OH (peptide)
peptide: {C18 diacid}-AICSRSLP[Oic]I[Pen]IPD[Orn]-OH
modifications: disulfide 3-11
SMILES: CC[C@H](C)[C@H](NC(=O)[C@H](C)NC(=O)CCCCCCCCCCCCCCCCC(=O)O)C(=O)N[C@H]1CSSC(C)(C)[C@@H](C(=O)N[C@H](C(=O)N2CCC[C@H]2C(=O)N[C@@H](CC(=O)O)C(=O)N[C@@H](CCCN)C(=O)O)[C@@H](C)CC)NC(=O)[C@H]([C@@H](C)CC)NC(=O)[C@@H]2C[C@@H]3CCCC[C@@H]3N2C(=O)[C@@H]2CCCN2C(=O)[C@H](CC(C)C)NC(=O)[C@H](CO)NC(=O)[C@H](CCCNC(=N)N)NC(=O)[C@H](CO)NC1=O
B2: ((N-Me)G)-IC+SRSLP-(Oic)-I-(Pen)+IP-(AAD)-OH (peptide)
peptide: [Sar]ICSRSLP[Oic]I[Pen]IP[Aad]-OH
modifications: disulfide 3-11; N-terminus assumed
SMILES: CC[C@H](C)[C@H](NC(=O)CNC)C(=O)N[C@H]1CSSC(C)(C)[C@@H](C(=O)N[C@H](C(=O)N2CCC[C@H]2C(=O)N[C@@H](CCCC(=O)O)C(=O)O)[C@@H](C)CC)NC(=O)[C@H]([C@@H](C)CC)NC(=O)[C@@H]2C[C@@H]3CCCC[C@@H]3N2C(=O)[C@@H]2CCCN2C(=O)[C@H](CC(C)C)NC(=O)[C@H](CO)NC(=O)[C@H](CCCNC(=N)N)NC(=O)[C@H](CO)NC1=O
B3: AIC+SRS-((tBu)A)-P-((4-CF3)P)-I-(Pen)+IPD-OH (peptide)
peptide: AICSRS[tBuAla]P[Pro(cis-4-CF3)]I[Pen]IPD-OH
modifications: disulfide 3-11; N-terminus assumed
SMILES: CC[C@H](C)[C@H](NC(=O)[C@H](C)N)C(=O)N[C@H]1CSSC(C)(C)[C@@H](C(=O)N[C@H](C(=O)N2CCC[C@H]2C(=O)N[C@@H](CC(=O)O)C(=O)O)[C@@H](C)CC)NC(=O)[C@H]([C@@H](C)CC)NC(=O)[C@@H]2C[C@H](C(F)(F)F)CN2C(=O)[C@@H]2CCCN2C(=O)[C@H](CC(C)(C)C)NC(=O)[C@H](CO)NC(=O)[C@H](CCCNC(=N)N)NC(=O)[C@H](CO)NC1=O
B4: AIC+SRSLP-((4-CF3)P)-IC+IPD-OH (peptide)
peptide: AICSRSLP[Pro(cis-4-CF3)]ICIPD-OH
modifications: disulfide 3-11; N-terminus assumed
SMILES: CC[C@H](C)[C@H](NC(=O)[C@H](C)N)C(=O)N[C@H]1CSSC[C@@H](C(=O)N[C@H](C(=O)N2CCC[C@H]2C(=O)N[C@@H](CC(=O)O)C(=O)O)[C@@H](C)CC)NC(=O)[C@H]([C@@H](C)CC)NC(=O)[C@@H]2C[C@H](C(F)(F)F)CN2C(=O)[C@@H]2CCCN2C(=O)[C@H](CC(C)C)NC(=O)[C@H](CO)NC(=O)[C@H](CCCNC(=N)N)NC(=O)[C@H](CO)NC1=O
B5: ((N-Me)G)-FC+TRK-((tBu)A)-(Pen)+YPD-OH (peptide)
peptide: [Sar]FCTRK[tBuAla][Pen]YPD-OH
modifications: disulfide 3-8; N-terminus assumed
SMILES: CNCC(=O)N[C@@H](Cc1ccccc1)C(=O)N[C@H]1CSSC(C)(C)[C@@H](C(=O)N[C@@H](Cc2ccc(O)cc2)C(=O)N2CCC[C@H]2C(=O)N[C@@H](CC(=O)O)C(=O)O)NC(=O)[C@H](CC(C)(C)C)NC(=O)[C@H](CCCCN)NC(=O)[C@H](CCCNC(=N)N)NC(=O)[C@H]([C@@H](C)O)NC1=O
B6: AIC+SRS-((tBu)A)-P-((4-CF3)P)-IC+IPD-OH (peptide)
peptide: AICSRS[tBuAla]P[Pro(cis-4-CF3)]ICIPD-OH
modifications: disulfide 3-11; N-terminus assumed
SMILES: CC[C@H](C)[C@H](NC(=O)[C@H](C)N)C(=O)N[C@H]1CSSC[C@@H](C(=O)N[C@H](C(=O)N2CCC[C@H]2C(=O)N[C@@H](CC(=O)O)C(=O)O)[C@@H](C)CC)NC(=O)[C@H]([C@@H](C)CC)NC(=O)[C@@H]2C[C@H](C(F)(F)F)CN2C(=O)[C@@H]2CCCN2C(=O)[C@H](CC(C)(C)C)NC(=O)[C@H](CO)NC(=O)[C@H](CCCNC(=N)N)NC(=O)[C@H](CO)NC1=O
B7: ((N-Me)G)-IC+SRS-((2,5-Difluoro)F)-PPI-(Pen)+IPe-OH (peptide)
peptide: [Sar]ICSRS[Phe(2,5-diF)]PPI[Pen]IP[dE]-OH
modifications: disulfide 3-11; N-terminus assumed
SMILES: CC[C@H](C)[C@H](NC(=O)CNC)C(=O)N[C@H]1CSSC(C)(C)[C@@H](C(=O)N[C@H](C(=O)N2CCC[C@H]2C(=O)N[C@H](CCC(=O)O)C(=O)O)[C@@H](C)CC)NC(=O)[C@H]([C@@H](C)CC)NC(=O)[C@@H]2CCCN2C(=O)[C@@H]2CCCN2C(=O)[C@H](Cc2cc(F)ccc2F)NC(=O)[C@H](CO)NC(=O)[C@H](CCCNC(=N)N)NC(=O)[C@H](CO)NC1=O
B8: aIC+SRS-((tBu)A)-P-((6S)-5-Azaspiro[2.4]heptane-6-carboxylic acid)-I-(Pen)+IPe-OH (peptide)
peptide: [dA]ICSRS[tBuAla]P[Pro(4-spirocPr)]I[Pen]IP[dE]-OH
modifications: disulfide 3-11; N-terminus assumed
SMILES: CC[C@H](C)[C@H](NC(=O)[C@@H](C)N)C(=O)N[C@H]1CSSC(C)(C)[C@@H](C(=O)N[C@H](C(=O)N2CCC[C@H]2C(=O)N[C@H](CCC(=O)O)C(=O)O)[C@@H](C)CC)NC(=O)[C@H]([C@@H](C)CC)NC(=O)[C@@H]2CC3(CC3)CN2C(=O)[C@@H]2CCCN2C(=O)[C@H](CC(C)(C)C)NC(=O)[C@H](CO)NC(=O)[C@H](CCCNC(=N)N)NC(=O)[C@H](CO)NC1=O
B9: AIC+SRSLPP-((3-Chloro-Ph)G)-C+IPD-OH (peptide)
peptide: AICSRSLPP[(3-Chloro-Ph)G]CIPD-OH
modifications: disulfide 3-11; N-terminus assumed
SMILES: CC[C@H](C)[C@H](NC(=O)[C@H](C)N)C(=O)N[C@H]1CSSC[C@@H](C(=O)N[C@H](C(=O)N2CCC[C@H]2C(=O)N[C@@H](CC(=O)O)C(=O)O)[C@@H](C)CC)NC(=O)[C@H](c2cccc(Cl)c2)NC(=O)[C@@H]2CCCN2C(=O)[C@@H]2CCCN2C(=O)[C@H](CC(C)C)NC(=O)[C@H](CO)NC(=O)[C@H](CCCNC(=N)N)NC(=O)[C@H](CO)NC1=O
B10: ((N-Me)G)-IC+SRS-((2,5-Difluoro)F)-PPI-(Pen)+IPDd-OH (peptide)
peptide: [Sar]ICSRS[Phe(2,5-diF)]PPI[Pen]IPD[dD]-OH
modifications: disulfide 3-11; N-terminus assumed
SMILES: CC[C@H](C)[C@H](NC(=O)CNC)C(=O)N[C@H]1CSSC(C)(C)[C@@H](C(=O)N[C@H](C(=O)N2CCC[C@H]2C(=O)N[C@@H](CC(=O)O)C(=O)N[C@H](CC(=O)O)C(=O)O)[C@@H](C)CC)NC(=O)[C@H]([C@@H](C)CC)NC(=O)[C@@H]2CCCN2C(=O)[C@@H]2CCCN2C(=O)[C@H](Cc2cc(F)ccc2F)NC(=O)[C@H](CO)NC(=O)[C@H](CCCNC(=N)N)NC(=O)[C@H](CO)NC1=O
B11: aIC+SRS-((tBu)A)-P-((6S)-5-Azaspiro[2.4]heptane-6-carboxylic acid)-I-(Pen)+IPD-OH (peptide)
peptide: [dA]ICSRS[tBuAla]P[Pro(4-spirocPr)]I[Pen]IPD-OH
modifications: disulfide 3-11; N-terminus assumed
SMILES: CC[C@H](C)[C@H](NC(=O)[C@@H](C)N)C(=O)N[C@H]1CSSC(C)(C)[C@@H](C(=O)N[C@H](C(=O)N2CCC[C@H]2C(=O)N[C@@H](CC(=O)O)C(=O)O)[C@@H](C)CC)NC(=O)[C@H]([C@@H](C)CC)NC(=O)[C@@H]2CC3(CC3)CN2C(=O)[C@@H]2CCCN2C(=O)[C@H](CC(C)(C)C)NC(=O)[C@H](CO)NC(=O)[C@H](CCCNC(=N)N)NC(=O)[C@H](CO)NC1=O
B12: ((N-Me)G)-IC+SRS-((2S)-2-amino-3-(1-methylcyclopropyl)propanoic acid)-P-(Oic)-I-(Pen)+IPD-OH (peptide)
peptide: [Sar]ICSRS[X13]P[Oic]I[Pen]IPD-OH
modifications: disulfide 3-11; N-terminus assumed
SMILES: CC[C@H](C)[C@H](NC(=O)CNC)C(=O)N[C@H]1CSSC(C)(C)[C@@H](C(=O)N[C@H](C(=O)N2CCC[C@H]2C(=O)N[C@@H](CC(=O)O)C(=O)O)[C@@H](C)CC)NC(=O)[C@H]([C@@H](C)CC)NC(=O)[C@@H]2C[C@@H]3CCCC[C@@H]3N2C(=O)[C@@H]2CCCN2C(=O)[C@H](CC2(C)CC2)NC(=O)[C@H](CO)NC(=O)[C@H](CCCNC(=N)N)NC(=O)[C@H](CO)NC1=O
B13: ((N-Me)G)-IC+SRS-((tBu)A)-PPI-(Pen)+IP-(PEG2(13 atoms))-OH (peptide)
peptide: [Sar]ICSRS[tBuAla]PPI[Pen]IP[PEG3]-OH
modifications: disulfide 3-11; N-terminus assumed
SMILES: CC[C@H](C)[C@H](NC(=O)CNC)C(=O)N[C@H]1CSSC(C)(C)[C@@H](C(=O)N[C@H](C(=O)N2CCC[C@H]2C(=O)NCCOCCOCCOCCC(=O)O)[C@@H](C)CC)NC(=O)[C@H]([C@@H](C)CC)NC(=O)[C@@H]2CCCN2C(=O)[C@@H]2CCCN2C(=O)[C@H](CC(C)(C)C)NC(=O)[C@H](CO)NC(=O)[C@H](CCCNC(=N)N)NC(=O)[C@H](CO)NC1=O

molecular target: T1, Recombinant human MASP1 enzyme …; experiment: cell-based or functional assay

human MASP1 IC50 [nM]	Binder
1000	B1
7	B2
3.1	B3
7.5	B4
1000	B5
70	{(2S)‑2‑(morpholin-4-yl)propanoic acid}-ICSRSLP[Oic]I[Pen]IPD-OH (disulfide 2-10) [((2S)-2-(morpholin-4-yl)propanoic acid)-IC+SRSLP-(Oic)-I-(Pen)+IPD-OH]
7.8	B6
21	B7
4.4	B8
526	B9
17	B10
4.4	B11
20	B12
5.3	B13

molecular target: Recombinant human MASP2 enzyme (fragment corresponding to amino acids 297-686, C-terminal His Tag) (human, UniProt O00187 297-686); experiment: cell-based or functional assay
Sequence (O00187 other isoform, or with tags, fused parts or gaps limits assumed): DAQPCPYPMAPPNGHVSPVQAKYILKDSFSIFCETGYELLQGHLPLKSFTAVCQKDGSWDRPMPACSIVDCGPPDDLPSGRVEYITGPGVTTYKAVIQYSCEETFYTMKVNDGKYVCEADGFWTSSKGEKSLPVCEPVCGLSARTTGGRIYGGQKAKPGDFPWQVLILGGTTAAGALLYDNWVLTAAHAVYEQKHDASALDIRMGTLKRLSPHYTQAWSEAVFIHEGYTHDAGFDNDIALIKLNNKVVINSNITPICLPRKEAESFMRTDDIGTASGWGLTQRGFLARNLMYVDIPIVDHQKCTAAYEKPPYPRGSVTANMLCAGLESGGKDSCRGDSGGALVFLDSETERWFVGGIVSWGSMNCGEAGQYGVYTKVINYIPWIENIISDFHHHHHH

human MASP2 IC50 [nM]	Binder
1000	B1
150	B2
510	B3
1000	B4
1000	B5
170	{(2S)‑2‑(morpholin-4-yl)propanoic acid}-ICSRSLP[Oic]I[Pen]IPD-OH (disulfide 2-10) [((2S)-2-(morpholin-4-yl)propanoic acid)-IC+SRSLP-(Oic)-I-(Pen)+IPD-OH]
1000	B6
64	B7
24	B8
1000	B9
20	B10
22	B11
230	B12
46	B13
